Test results taken from patent US7727739B2, “Methods for measuring enzyme activity” (GE Healthcare UK Limited, priority 2002, dated 2010).
Non-standard residues stand in square brackets, D forms with d. Residues, ends and D or L forms follow the SMILES beside them. No end group written: not given here. *: point of attachment. X1 = 6‑(9-oxo-9H-acridin-10-yl)hexanoyl, O=C(CCCCCn1c2ccccc2c(=O)c2ccccc21)*; Sta = CC(C)C[C@H](N)[C@@H](O)CC(=O)O; Phe(NO2) = nitro-phenylalanine; Isovaleryl = CC(C)CC(=O)*; Nva = CCC[C@H](N)C(=O)O

Key:
[1] = Fluorescence lifetime of labelled substrate in protease assay buffers; assay type: physicochemical
Protocol: A no enzyme control (NEC) having 10 μl of buffer in place of enzyme was used. […] Since the lifetimes of substrate (10.3 ns) and product (13.8 ns) are different it was possible to monitor the appearance of product and disappearance of the substrate, the results are shown in FIG. 2.
A no enzyme control (NEC) having 10 μl of buffer in place of enzyme was used. […] Since the lifetimes of the substrate (11.5 ns) and product (14.5 ns) in Tris buffer are different it was possible to monitor the appearance of product and disappearance of the substrate, the results are shown in FIG. 3.
A no enzyme control (NEC) having 100 μl of buffer in place of enzyme was included.

[2] = Fluorescence lifetimes stated for labels and typical substrates; assay type: physicochemical; details: for lifetime of typical substrate: intact substrate, products 14 nano seconds; for lifetime of fluorescent label: free label
[3] = Fluorescence lifetime of labelled peptides by time-correlated single photon counting; assay type: physicochemical; details: 100 nM in TNC-T buffer pH7.5; excited at 405 nm, detection at 450 nm
Protocol: The lifetime of this solution was determined (2 ml volume in a cuvette) by a time-correlated single photon counting technique (Edinburgh Analytical Instruments FL900CDT spectrometer). Samples were excited at 405 nm using a laser diode, detection being at 450 nm.
The labelled peptide (6-(9-oxo-9H-acridin-10-yl) hexanoic acid- RPKPVENvaWRK) (SEQ ID NO:3) was also diluted to 100 nM in TNC-T buffer and the lifetime was similarly recorded.

pepsin [4] = target: pepsin (Homo sapiens, UniProt P0DJD7); experiment: Inhibition of pepsin activity, fluorescence lifetime protease assay; assay type: biochemical; details: pepsin 0.5 ng; 0.1M citrate buffer pH3.6; FIG. 8; read-out: apparent IC50, pepsin digestion of the peptide substrate
Sequence of pepsin (Homo sapiens, UniProt P0DJD7) (P0DJD7 63-388): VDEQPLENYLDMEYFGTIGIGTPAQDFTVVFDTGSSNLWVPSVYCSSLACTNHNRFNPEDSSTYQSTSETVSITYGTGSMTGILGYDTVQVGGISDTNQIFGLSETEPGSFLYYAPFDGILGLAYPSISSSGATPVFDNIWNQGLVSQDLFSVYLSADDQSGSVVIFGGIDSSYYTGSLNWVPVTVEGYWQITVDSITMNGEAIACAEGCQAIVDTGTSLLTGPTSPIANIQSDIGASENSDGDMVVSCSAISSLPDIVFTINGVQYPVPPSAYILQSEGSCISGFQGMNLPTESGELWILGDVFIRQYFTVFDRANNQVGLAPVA
Protocol: After incubation at ambient temperature, the fluorescence intensity and lifetime were recorded. Deconvolution using a non-linear least-squares analysis algorithm gave the fluorescence lifetimes.

[5] = test system: T1, 6-(9-oxo-9H-acridin-10-yl) hexanoyl-CHLDIIW
T1 sequence: CHLDIIW

[6] = test system: T2, 6-(9-oxo-9H-acridin-10-yl) hexanoic acid-Arg-Pro-Lys-Pro-Val-Glu-Nva-Trp-Arg-Lys-NH2
T2 sequence: RPKPVEXWRK

pepsin [7] = experiment: cell-based or functional assay
[8] = target: bovine kidney cathepsin D (bovine) (UniProt P80209); experiment: cell-based or functional assay
Sequence of bovine kidney cathepsin D (bovine) (P80209 45-390 limits assumed): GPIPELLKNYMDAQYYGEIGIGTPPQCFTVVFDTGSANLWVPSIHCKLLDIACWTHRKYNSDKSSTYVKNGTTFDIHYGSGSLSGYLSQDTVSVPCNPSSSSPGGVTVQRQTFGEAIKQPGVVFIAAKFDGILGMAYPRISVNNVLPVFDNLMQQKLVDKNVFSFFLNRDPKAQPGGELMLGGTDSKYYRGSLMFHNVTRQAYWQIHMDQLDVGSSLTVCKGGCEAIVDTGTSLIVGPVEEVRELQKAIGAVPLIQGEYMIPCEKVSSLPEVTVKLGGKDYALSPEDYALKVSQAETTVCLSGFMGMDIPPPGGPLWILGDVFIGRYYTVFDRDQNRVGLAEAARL

[9] = test system: T3, 6-(9-oxo-9H-acridin-10-yl) hexanoyl-Ala-Ala-Phe-Phe-Ala-Ala-Tyr [AAFFAAY]
T3 sequence: AAFFAAY

[10] = target: T4, 6-(9-oxo-9H-acridin-10-yl) hexanoic acid-AAFFAAF-nitro (not fully specified)
T4 chain: AAFFAAF

**Q.** Which “fluorescence lifetime of substrate” value ([1]; PBS buffer, pH7, stretched exponential analysis) does the source give for “6-(9-oxo-9H-acridin-10-yl) hexanoic acid- AAFFAAF-nitro (X1-AAFFAA[Phe(NO2)]; not fully specified) [acridone-labelled nitro-phenylalanine peptide, thermolysin substrate]” here?
**A.** The value was 2.5 ns.

**Q.** With “6-(9-oxo-9H-acridin-10-yl) hexanoic acid- Arg-Pro-Lys-Pro-Val-Glu-Nva-Trp-Arg-Lys-NH2 (X1-RPKPVE[Nva]WRK-NH2; SMILES CCC[C@H](NC(=O)[C@H](CCC(=O)O)NC(=O)[C@@H](NC(=O)[C@@H]1CCCN1C(=O)[C@H](CCCCN)NC(=O)[C@@H]1CCCN1C(=O)[C@H](CCCNC(=N)N)NC(=O)CCCCCn1c2ccccc2c(=O)c2ccccc21)C(C)C)C(=O)N[C@@H](Cc1c[nH]c2ccccc12)C(=O)N[C@@H](CCCNC(=N)N)C(=O)N[C@@H](CCCCN)C(N)=O) [acridone-labelled MMP-3 substrate peptide]” as the molecule, how does the “lifetime of typical substrate” value [2] read?
**A.** The value was 10 nano seconds.

**Q.** And the “Lifetime (ns)” value [3]?
**A.** Its value is 12.6 ns.

**Q.** And the “fluorescence lifetime of substrate” value ([1]; 50 mM Tris buffer pH 7.5, MMP-3 assay, FIG. 6)?
**A.** Its value is 10 ns.

**Q.** Which “Lifetime (ns)” value [3] does the source give for “6-(9-oxo-9H-acridin-10-yl) hexanoic acid- RPKPVE (Arg-Pro-Lys-Pro-Val-Glu) (X1-RPKPVE) [acridone-labelled peptide without tryptophan]” here?
**A.** The value was 13.9 ns.

**Q.** Which “lifetime of typical substrate” value [2] does the source give for “6-(9-oxo-9H-acridin-10-yl) hexanoyl- CHLDIIW (X1-CHLDIIW) [acridone-labelled Asp-n protease substrate]” here?
**A.** The value was 10 nano seconds.

**Q.** What does the source list for “6-(9-oxo-9H-acridin-10-yl) hexanoyl-Ala-Ala-Phe-Phe-Ala-Ala-Tyr (X1-AAFFAAY) [acridone-labelled protease substrate peptide]”?
**A.** lifetime of typical substrate [2]: 10 nano seconds; fluorescence lifetime of substrate ([1]; 50 mM Tris buffer, pH7.8, 10 mM CaCl2): 11.5 ns; fluorescence lifetime of substrate ([1]; 0.1M citrate buffer, pH3.6, 0.005% Tween-20): 10.3 ns

**Q.** For CC(=O)Nc1ccc2c(c1)c(=O)c1ccccc1n2CCCCCC(=O)O [6-(2-(acetamido)-9-oxo-9H-acridin-10-yl) hexanoic acid], which “lifetime of fluorescent label” value [2] is on record?
**A.** The value was 17 ns.

**Q.** With O=C(O)CCCCCn1c2ccccc2c(=O)c2cc(Br)ccc21 [6-(2-bromo-9-oxo-9H-acridin-10-yl) hexanoic acid] as the molecule, how does the “lifetime of fluorescent label” value [2] read?
**A.** The value was 8 ns.

**Q.** For O=C(O)CCCCCNC(=O)c1cccc2c(=O)c3ccccc3[nH]c12 [6-(9-oxo-9H-acridin-4-carboxamido) hexanoic acid], which “lifetime of fluorescent label” value [2] is on record?
**A.** The value was 4 ns.

**Q.** For O=C(O)CCCCCn1c2ccccc2c(=O)c2ccccc21 [6-(9-oxo-9H-acridin-10-yl) hexanoic acid], which “lifetime of fluorescent label” value [2] is on record?
**A.** Its value is 14 ns.

**Q.** For CC(C)CC(=O)N[C@H](C(=O)N[C@H](C(=O)N[C@@H](CC(C)C)[C@@H](O)CC(=O)N[C@@H](C)C(=O)N[C@@H](CC(C)C)[C@@H](O)CC(=O)O)C(C)C)C(C)C [Pepstatin A] (Isovaleryl-VV[Sta]A[Sta]-OH), which IC50 (pepsin [4]) is on record?
**A.** Its IC50 is 0.88 nM.

**Q.** With Asp-n as the molecule, how does the “protease digestion of labelled substrate (fluorescence intensity and lifetime)” value [5] read?
**A.** The value was “illustrates the digestion of 6-(9-oxo-9H-acridin-10-yl) hexanoyl -CHLDIIW (SEQ ID NO:2) with Asp-n”.

**Q.** With Matrix Metalloproteinase 3 as the molecule, how does the “protease digestion of labelled substrate (fluorescence lifetime)” value (“protease digestion … (fluorescence lifetime)” below) [6] read?
**A.** Its value is “enzyme-dependant appearance of the product (14 ns lifetime species) and disappearance of the substrate (10 ns lifetime species)”.

**Q.** With Pepstatin A (peptide) as the molecule, how does the inhibition of pepsin digestion of the labelled peptide substrate (fluorescence lifetime), apparent IC50 (pepsin [7]) read?
**A.** The inhibition of pepsin digestion of the labelled peptide substrate (fluorescence lifetime), apparent IC50 was 0.88 nM.

**Q.** What about the cathepsin D enzyme activity at 12 nM pepstatin A against no inhibitor [8] of the same molecule?
**A.** Its cathepsin D enzyme activity at 12 nM pepstatin A against no inhibitor is 5 fold.

**Q.** Which “protease digestion … (fluorescence lifetime)” value [9] does the source give for chymotrypsin here?
**A.** Its value is “it was possible to monitor the appearance of product and disappearance of the substrate”.

**Q.** With pepsin as the molecule, how does the “protease digestion … (fluorescence lifetime)” value [9] read?
**A.** Its value is “it was possible to monitor the appearance of product and disappearance of the substrate”.

B1: thermolysin (protein)
chain: ITGTSTVGVGRGVLGDQKNINTTYSTYYYLQDNTRGNGIFTYDAKYRTTLPGSLWADADNQFFASYDAPAVDAHYYAGVTYDYYKNVHNRLSYDGNNAAIRSSVHYSQGYNNAFWNGSQMVYGDGDGQTFIPLSGGIDVVAHELTHAVTDYTAGLIYQNESGAINEAISDIFGTLVEFYANKNPDWEIGEDVYTPGISGDSLRSMSDPAKYGDPDHYSKRYTGTQDNGGVHINSGIINKAAYLISQGGTHYGVSVVGIGRDKLGKIFYRALTQYLTPTSNFSQLRAAAVQSATDLYGSTSQEVASVKQAFDAVGVK
**Q.** For B1, which “protease digestion … (fluorescence lifetime)” value [10] is on record?
**A.** Its value is “it was possible to monitor the appearance of product and disappearance of the substrate”.
